Data taken from patent US20120276102A1 (Pfizer, published 2012).
Changes are numbered by the printed parent chain. Each block holds one binder with its values, some of them ahead of it.

How the values were obtained:
[1] = target: T1, human complement component C1q (human, UniProt P02745 23-245; P02746 28-253; P02747 29-245); assay: C1q ELISA: antibody coated on the plate, human serum 1:50, chicken anti-human C1q and HRP anti-chicken IgY
T1 construct: Native C1q in diluted human serum
Method: In order to determine whether cell-surface binding by anti-IL-21R antibodies is likely to lead to complement-dependent cytotoxicity (CDC), the antibodies were tested for their ability to bind to the complement component C1q in an ELISA. […] Diluted antibodies (100 μl) were coated onto a COSTAR® high-binding ELISA plate (Corning Life Sciences, Lowell, Mass.) overnight at 4° C. Plates were washed 3× with PBS/Tween-20 and blocked with 200 μl of blocking buffer (0.1 M NaPO₄, 0.1 M NaCl, 0.1% gelatin, 0.01% Tween) for 1 hr at RT. Human serum previously determined to contain C1q (Quidel, San Diego, Calif.) was diluted 1:50 in PBS. After 1 hr of blocking, plates were washed and 100 μl of diluted serum was added to each well and incubated for 2 hr at RT on a shaker. Following three washes, 100 μl A of 0.1 μg/ml chicken polyclonal anti-human C1q antibody (AbCam, Cambridge, Mass.) was added to each well and incubated for 1 hr at RT. Plates were again washed and incubated with 100 μA of a rabbit polyclonal antibody to chicken Ig-Y—HRP diluted 1:4000 (AbCam) for 1 hr at RT. Plates were washed and developed with TMB for 5 min, followed by 50 μA of 1 M H₂SO₄ to stop the reaction, and then read at 450 nm.

[2] = target: T2, rat IL-21R expressed on cells (rat); assay: cell-based ELISA on CHO cells transiently expressing rat IL-21R; HRP anti-human IgG, A450
T2 construct: whole, on cells
Method in brief: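 Transfection 48 hr pre-assay; block PBS/CaMg/5% milk 1 hr RT; serially diluted IgG conditioned media 1 hr RT; HRP conjugate 1 hr RT; TMB to saturation, stop 0.18 M H₂SO₄.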

[3] = target: human IL-21R expressed on cells (human, UniProt Q9HBE5 20-538); assay: cell-based or functional assay
Sequence of human IL-21R expressed on cells (Q9HBE5 20-538 limits assumed): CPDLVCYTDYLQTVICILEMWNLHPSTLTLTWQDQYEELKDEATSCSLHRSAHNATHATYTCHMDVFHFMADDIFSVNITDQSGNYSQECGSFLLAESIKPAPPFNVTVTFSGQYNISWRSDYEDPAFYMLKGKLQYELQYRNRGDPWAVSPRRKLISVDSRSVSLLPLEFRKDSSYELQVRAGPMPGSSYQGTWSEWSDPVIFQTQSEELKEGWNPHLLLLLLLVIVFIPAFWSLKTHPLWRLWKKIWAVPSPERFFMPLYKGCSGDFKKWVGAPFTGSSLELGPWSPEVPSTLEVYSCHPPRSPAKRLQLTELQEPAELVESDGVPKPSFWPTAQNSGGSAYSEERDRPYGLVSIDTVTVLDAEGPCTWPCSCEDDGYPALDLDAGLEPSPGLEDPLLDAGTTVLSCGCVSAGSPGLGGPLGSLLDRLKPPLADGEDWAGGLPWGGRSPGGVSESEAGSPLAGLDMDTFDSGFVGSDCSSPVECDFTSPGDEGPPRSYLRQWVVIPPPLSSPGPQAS

[4] = target: murine IL-21R expressed on cells (murine, UniProt Q9JHX3 20-529); assay: cell-based or functional assay
Sequence of murine IL-21R expressed on cells (Q9JHX3 20-529 limits assumed): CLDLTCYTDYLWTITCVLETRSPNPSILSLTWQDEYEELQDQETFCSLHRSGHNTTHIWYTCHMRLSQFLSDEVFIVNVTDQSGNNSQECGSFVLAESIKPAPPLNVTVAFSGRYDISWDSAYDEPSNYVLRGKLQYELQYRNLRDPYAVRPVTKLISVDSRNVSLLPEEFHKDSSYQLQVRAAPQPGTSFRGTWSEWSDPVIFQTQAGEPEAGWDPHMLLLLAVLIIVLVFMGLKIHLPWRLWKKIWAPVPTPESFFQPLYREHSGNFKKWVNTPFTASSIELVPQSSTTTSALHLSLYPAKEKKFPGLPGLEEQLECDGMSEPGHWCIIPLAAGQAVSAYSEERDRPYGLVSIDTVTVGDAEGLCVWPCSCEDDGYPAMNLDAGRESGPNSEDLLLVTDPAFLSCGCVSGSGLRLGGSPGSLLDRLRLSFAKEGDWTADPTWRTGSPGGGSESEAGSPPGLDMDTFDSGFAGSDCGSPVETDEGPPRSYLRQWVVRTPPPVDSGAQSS

[5] = target: T2, rat IL-21R expressed on cells; assay: cell-based or functional assay
[6] = target: T3, rabbit IL-21R-Fc isoform 1 (rabbit); assay: ELISA; competitor 10% conditioned medium containing rabbit IL-21
T3 construct: extracellular domain

[7] = target: T4, rabbit IL-21R-Fc isoform 2 (rabbit); assay: as above
T4 construct: extracellular domain

[8] = target: T5, human IL-21R extracellular domain His-Flag fusion protein (human, UniProt Q9HBE5 20-232); assay: SPR, Ab captured on anti-human IgG, replicate experiment; Table 7B, human IL-21R-His/FLAG
T5 construct: Biotinylated in the HTRF screen; also called hIL-21R-H/F; human IL-21R-H/F
T5 sequence (Q9HBE5 20-232): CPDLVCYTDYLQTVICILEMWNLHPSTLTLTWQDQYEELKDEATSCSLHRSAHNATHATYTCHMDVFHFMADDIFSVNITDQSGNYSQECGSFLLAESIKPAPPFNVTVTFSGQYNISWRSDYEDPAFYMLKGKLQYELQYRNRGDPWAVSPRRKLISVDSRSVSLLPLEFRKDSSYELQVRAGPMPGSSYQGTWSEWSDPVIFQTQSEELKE
Method: The kinetics of binding of anti-IL-21R antibodies to human and murine IL-21R-H/F was tested on a BIACORE™ surface plasmon resonance instrument. Anti-human IgG antibodies (Invitrogen Corporation) were immobilized onto a research-grade carboxy-methyl-dextran chip (CM5) using standard amine coupling. The surface was activated with EDC/NHS for 7 min at a flow of 20 μl/min. The first flow cell was used as a reference surface to correct for bulk refractive index, matrix effects, and nonspecific binding. The anti-human-Fc antibody was diluted to 20 μg/ml in 10 mM sodium acetate buffer (pH 5.0), and 2950-3405 resonance units (RU) were captured on each of the four flow cells. Remaining activated groups were blocked with 1.0 M ethanolamine-HCl (pH 8.5).
Anti-IL-21R antibodies were diluted to 0.1-0.2 μg/ml in HBS/EP buffer supplemented with 0.2% bovine serum albumin and loaded onto the BIACORE™ chip. Following a brief washing period, solutions of 0-100 nM human IL-21R-H/F or 10-500 nM murine IL-21R-H/F were injected over the chip at a flow rate of 50 μl/min. The association phase was run for 3 min for human and murine IL-21R kinetics, and the dissociation phase was monitored for 15 min for hIL-21R and for 5 min for mIL-21R, followed by two 10 μl injections and one 30 μl injection of glycine (pH 1.5), to regenerate a fully active capturing surface. […]

T1 sequence (P02745 23-245, chain 1 of 3): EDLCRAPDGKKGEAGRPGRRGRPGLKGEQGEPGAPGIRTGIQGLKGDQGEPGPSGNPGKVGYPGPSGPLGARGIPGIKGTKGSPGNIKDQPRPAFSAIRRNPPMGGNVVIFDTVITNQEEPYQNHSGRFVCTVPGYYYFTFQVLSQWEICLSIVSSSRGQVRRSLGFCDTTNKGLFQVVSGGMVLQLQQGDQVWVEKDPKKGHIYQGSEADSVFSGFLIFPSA
T1 sequence (P02746 28-253, chain 2 of 3): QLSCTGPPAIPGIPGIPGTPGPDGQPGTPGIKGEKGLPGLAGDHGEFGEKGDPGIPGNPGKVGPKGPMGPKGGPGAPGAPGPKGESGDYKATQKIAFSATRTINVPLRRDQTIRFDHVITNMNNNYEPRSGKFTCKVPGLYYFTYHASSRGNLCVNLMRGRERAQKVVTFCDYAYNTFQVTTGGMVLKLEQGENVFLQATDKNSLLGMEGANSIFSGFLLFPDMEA
T1 sequence (P02747 29-245, chain 3 of 3): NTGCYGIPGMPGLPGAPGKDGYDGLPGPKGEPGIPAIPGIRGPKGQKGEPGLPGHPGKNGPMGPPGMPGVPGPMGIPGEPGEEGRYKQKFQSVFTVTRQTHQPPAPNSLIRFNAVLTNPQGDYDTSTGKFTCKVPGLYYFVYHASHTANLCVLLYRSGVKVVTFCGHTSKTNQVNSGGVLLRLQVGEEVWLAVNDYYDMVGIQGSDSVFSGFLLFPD

binding result [1]: no binding
B1: AbP (antibody, human IgG1, V domains shown)
VH: QVQLQESGPGLVKPSETLSLTCAVSGYSISSGYYWGWIRQPPGKGLEWIGSISHTGNTYYNPPLKSRVTISVDTSKNQFSLKLSSVTAADTAVYYCARGGGISRPEYWGQGTLVTVSS
VL: SSELTQDPAVSVALGQTVRITCQGDSLRTYYASWYQQKPGQAPVLVIYGKHKRPSGIPDRFSGSSSGNTASLTITGAQAEDEADYYCVSRSAKGNPHVLFGGGTQLTVL
notes: CDR3 graft, residue limits derived as for m29; also called VHP/VL20; VHPTM/VL20

Human IL-21R-BaF3 Neutralization IC50 [3]: 1.71 nM | Human IL-21R-TF1 Neutralization IC50 [3]: 14 nM | Murine IL-21R-BaF3 Neutralization IC50 [4]: 177 nM
B3: parental 18A5 antibody (antibody, V domains shown)
VH: B1 VH with P14T, Q110K
VL: SSELTQDPPVSVALGQTVTLTCQGDSLRTYYASWYQQKSGQAPILLLYGKHKRPSGIPDRFSGSTSGDTASLTITGAQAEDEADYYCNSRDSSGNPHVLFGGGTQLTVL
notes: also called 18A5 IgG

IC50, rat T cell proliferation, experiment 1 [5]: 173 nM | IC50, rat T cell proliferation, experiment 2 [5]: 105 nM | binding result [1]: no binding
B5: AbU (antibody, human IgG1, V domains shown)
VH: B1 VH
VL: B1 VL with V88T, S89T, A92N
notes: CDR3 graft, residue limits derived as for m29; also called VHP/VL25; VHPTM/VL25

Human IL-21R-BaF3 Neutralization IC50 [3]: 0.3 nM | Human IL-21R-TF1 Neutralization IC50 [3]: 2.32 nM | Murine IL-21R-BaF3 Neutralization IC50 [4]: 0.05 nM | EC50 (read off the curve) [2]: ~1 nM
B6: AbT (antibody, human IgG1, V domains shown)
VH: B1 VH
VL: B1 VL with S89A, A92N
notes: CDR3 graft, residue limits derived as for m29; also called VHP/VL9; VHPTM/VL9

Further lines, the binder ahead of its results:

B2: AbO (antibody, human IgG1, V domains shown)
VH: B1 VH
VL: B1 VL with S89T
notes: CDR3 graft, residue limits derived as for m29; also called VHP/VL16; VHPTM/VL16
EC50 (read off the curve) [2]: ~0.4 nM | binding result [1]: no binding

B4: AbR (antibody, human IgG1, V domains shown)
VH: B1 VH with G99F, G100M, I102F, S103G
VL: B1 VL with S89T, A92V
notes: CDR3 graft, residue limits derived as for m29; also called VH3/VL18; VH3DM/VL18
Human IL-21R-BaF3 Neutralization IC50 [3]: 0.56 nM | Human IL-21R-TF1 Neutralization IC50 [3]: 1.63 nM | Murine IL-21R-BaF3 Neutralization IC50 [4]: 0.34 nM | EC50 (read off the curve) [2]: ~0.7 nM

B7: AbS (antibody, V domains shown)
VH: B1 VH
VL: B1 VL with V88M, A92I, K93W
notes: CDR3 graft, residue limits derived as for m29; also called VHP/VL6; VHPTM/VL6
Human IL-21R-BaF3 Neutralization IC50 [3]: 0.68 nM | Human IL-21R-TF1 Neutralization IC50 [3]: 6.67 nM | Murine IL-21R-BaF3 Neutralization IC50 [4]: 0.04 nM | IC50, rat T cell proliferation, experiment 1 [5]: 36 nM | IC50, rat T cell proliferation, experiment 2 [5]: 27.1 nM | fold reduction of binding in the presence of rabbit IL-21 [6]: ~10 fold | fold reduction of binding in the presence of rabbit IL-21 [7]: ~10 fold | EC50 (read off the curve) [2]: ~1 nM | binding result [1]: no binding

B8: AbQ (antibody, human IgG1, V domains shown)
VH: B1 VH with G99F, G100M, I102F, S103G
VL: B1 VL with S89A, A92V, K93V
notes: CDR3 graft, residue limits derived as for m29; also called VH3/VL2; VH3DM/VL2
kon [8]: 439000 M⁻¹ s⁻¹ | EC50 (read off the curve) [2]: ~0.8 nM
